How the values were obtained:
[1] = molecular target: pyruvate kinase M2 (PKM2), wild type, purified recombinant human (human) (UniProt P14618); assay: native MS; time course over 20 min, 10 µM PKM2 with 5 µM FBP and 400 µM Phe; ratio of the tetramer 32+ peak to the dimer 22+ peak, two-state sigmoidal model; dimers and monomers to tetramer
[2] = molecular target: pyruvate kinase M2 (PKM2), wild type, purified recombinant human (human) (UniProt P14618); assay: native MS; nano-ESI, 10 µM PKM2 in 200 mM ammonium acetate pH 6.8, no FBP added (PKM2^apo*, <25% co-purified FBP); also with 300 µM Phe alone (fewer tetramers, more dimers)

Sequence of pyruvate kinase M2 (PKM2), wild type, purified recombinant human, P14618-1 1-531 (enzyme; other documents disagree on this pair) (P14618 whole entry): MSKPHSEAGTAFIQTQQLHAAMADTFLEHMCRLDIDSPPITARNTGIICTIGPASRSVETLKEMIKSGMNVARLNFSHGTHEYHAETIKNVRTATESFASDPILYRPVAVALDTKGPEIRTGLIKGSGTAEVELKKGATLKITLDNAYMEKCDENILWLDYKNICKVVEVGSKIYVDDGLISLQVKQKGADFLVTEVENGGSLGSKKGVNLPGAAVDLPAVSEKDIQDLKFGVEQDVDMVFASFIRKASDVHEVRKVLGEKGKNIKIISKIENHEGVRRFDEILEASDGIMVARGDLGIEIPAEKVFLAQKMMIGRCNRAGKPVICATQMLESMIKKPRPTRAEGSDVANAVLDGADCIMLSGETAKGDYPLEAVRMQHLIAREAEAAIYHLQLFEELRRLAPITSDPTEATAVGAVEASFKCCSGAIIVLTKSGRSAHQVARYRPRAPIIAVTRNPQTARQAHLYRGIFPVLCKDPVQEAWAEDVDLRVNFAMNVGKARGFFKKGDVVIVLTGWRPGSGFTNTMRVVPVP

For “pyruvate kinase M2 (PKM2), wild type, purified recombinant human, P14618-1 1-531 (enzyme; other documents disagree on this pair)”, the ktet (kinetics of tetramerisation with half-stoichiometric FBP and Phe) [1] was 812 s and the stoichiometry N [2] was 2.

Reference: paper PMC6636998
